Measured values published in article PMC4352763.
One block for each substance: values may come before it.

How the values were obtained:
[1] = target: UCH-L5_(M148A/F149A) (human)
[2] = target: UCH-L5 (full-length, wild type) (human)
Ub-LysGlyTAMRA = Ub-LysGlyTAMRA (UniProt P0CG48); assay: fluorescence polarisation
[3] = target: RPN13 DEUBAD domain (aa 265-388) (human) (UniProt Q16186); assay: ITC

Sequence of UniProt P0CG48 (P0CG48 whole entry, looked up, the tested form may be a part): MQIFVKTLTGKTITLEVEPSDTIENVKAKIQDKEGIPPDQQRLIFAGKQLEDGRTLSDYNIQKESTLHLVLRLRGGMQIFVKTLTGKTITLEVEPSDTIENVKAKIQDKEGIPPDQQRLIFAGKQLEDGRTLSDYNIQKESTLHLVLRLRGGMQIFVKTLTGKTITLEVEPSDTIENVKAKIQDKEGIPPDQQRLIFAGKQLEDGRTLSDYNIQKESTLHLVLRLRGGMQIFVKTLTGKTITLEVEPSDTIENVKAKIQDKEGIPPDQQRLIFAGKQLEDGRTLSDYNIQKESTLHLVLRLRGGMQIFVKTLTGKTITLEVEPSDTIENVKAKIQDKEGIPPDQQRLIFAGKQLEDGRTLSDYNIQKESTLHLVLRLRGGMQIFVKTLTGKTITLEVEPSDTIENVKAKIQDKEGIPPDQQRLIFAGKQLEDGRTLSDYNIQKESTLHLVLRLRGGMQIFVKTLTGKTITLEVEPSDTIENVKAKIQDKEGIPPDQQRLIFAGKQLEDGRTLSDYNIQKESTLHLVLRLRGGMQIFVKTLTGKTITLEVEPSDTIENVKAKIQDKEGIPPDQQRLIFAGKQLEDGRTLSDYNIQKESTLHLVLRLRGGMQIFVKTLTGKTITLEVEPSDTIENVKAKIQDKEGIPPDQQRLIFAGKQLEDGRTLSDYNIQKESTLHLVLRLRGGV

activation of Ub-AMC hydrolysis by the addition of RPN13^DEU [1]: 2.7 fold | activation of Ub-AMC hydrolysis by the addition of RPN13^DEU [2]: 7 fold
Substance: RPN13 DEUBAD domain (aa 265-388) (from UniProt Q16186 265-388) (domain or fragment)

Kd (Ub-LysGlyTAMRA): 2300 nM
Substance: UCH-L5 (C88A)/RPN13DEU complex (from UniProt Q9Y5K5-3;Q16186)

Kd [3]: 6 nM
Substance: UCH-L5 (full-length, wild type) (enzyme)
